# ± gives the uncertainty stated by the source.
# B1: Ankyrin-3, residues 4094 to 4171; numbered along this chain, Q12955 (parent)
# chain: MAIVADHLGLSWTELARELNFSVDEINQIRVENPNSLISQSFMLLKKWVTRDGKNATTDALTSVLTKINRIDIVTLLE
# Variants of: B1
# Assay: abundance fitness (aPCA) (normalised: wild type 0, dead -1); higher = more abundant; growth selection in yeast, the domain comes from the species named
# Settings: Homo sapiens
row,Variant,abundance fitness
1,M43D,0.028 ± 0.12
2,M43A,0.047 ± 0.065
3,M43I,-0.431 ± 0.17
4,M43H,0.014 ± 0.11
5,M43L,-0.152 ± 0.054
6,M43T,0.033 ± 0.071
7,M43W,-0.168 ± 0.073
8,M43V,-0.074 ± 0.057
9,M43K,-0.185 ± 0.16
10,M43E,0.056 ± 0.081
11,M43P,-0.892 ± 0.14
12,M43S,0.005 ± 0.054
13,M43F,-0.265 ± 0.18
14,M43R,-0.128 ± 0.045
15,M43C,0.1 ± 0.11
16,M43G,0.02 ± 0.048
17,T58P,-0.195 ± 0.054
18,T58R,-0.067 ± 0.051
19,T58G,-0.104 ± 0.04
20,T58I,0.09 ± 0.22
21,T58N,-0.168 ± 0.17
22,T58H,0.001 ± 0.091
23,T58F,-0.112 ± 0.15
24,T58Q,0.034 ± 0.11

row,Variant,abundance fitness
1,T58K,0.016 ± 0.13
2,T58M,0.173 ± 0.14
3,T58L,-0.002 ± 0.05
4,T58A,-0.051 ± 0.06
5,T58E,-0.113 ± 0.079
6,T58D,0.086 ± 0.079
7,F42G,0.113 ± 0.048
8,F42D,0.165 ± 0.086
9,F42A,0.043 ± 0.048
10,F42N,0.104 ± 0.22
11,F42V,0.042 ± 0.056
12,F42R,0.188 ± 0.052
13,F42Y,0.023 ± 0.1
14,F42S,0.174 ± 0.056
15,F42M,0.102 ± 0.12
16,F42L,-0.063 ± 0.065
17,F42K,0.201 ± 0.093
18,F42W,0.022 ± 0.085
19,F42I,-0.03 ± 0.14
20,F42H,0.119 ± 0.1
21,F42T,0.086 ± 0.087
22,F42Q,0.074 ± 0.092
23,I38G,-0.006 ± 0.061
24,I38H,-0.167 ± 0.21

row,Variant,abundance fitness
1,I38W,-0.039 ± 0.071
2,I38S,0.078 ± 0.057
3,I38Q,-0.133 ± 0.11
4,I38T,-0.122 ± 0.071
5,I38P,-0.041 ± 0.066
6,I38L,-0.183 ± 0.058
7,I38N,0.234 ± 0.25
8,I38R,0.089 ± 0.044
9,I38M,0.009 ± 0.088
10,I38K,0.05 ± 0.13
11,I38V,0.027 ± 0.068
12,V49Y,0.021 ± 0.15
13,V49I,-0.041 ± 0.082
14,V49S,-0.034 ± 0.065
15,V49Q,0.07 ± 0.1
16,V49K,-0.093 ± 0.098
17,V49N,0.057 ± 0.17
18,V49C,-0.095 ± 0.07
19,V49G,-0.168 ± 0.044
20,V49P,-1.02 ± 0.19
21,V49T,-0.115 ± 0.077
22,V49A,0.022 ± 0.051
23,V49L,-0.058 ± 0.06
24,V49M,-0.082 ± 0.074

row,Variant,abundance fitness
1,V49D,-0.392 ± 0.14
2,V49F,-0.154 ± 0.11
3,V49E,0.087 ± 0.089
4,V49W,-0.361 ± 0.092
5,V49R,0.024 ± 0.057
6,G53C,-0.545 ± 0.15
7,G53R,-0.367 ± 0.057
8,G53W,-0.849 ± 0.16
9,G53Y,-0.962 ± 0.44
10,G53L,-0.832 ± 0.13
11,G53Q,-0.065 ± 0.059
12,G53T,-0.521 ± 0.14
13,G53F,-0.728 ± 0.14
14,G53P,-0.149 ± 0.051
15,G53V,-0.672 ± 0.089
16,G53D,-0.578 ± 0.13
17,G53A,-0.457 ± 0.077
18,G53H,-0.3 ± 0.28
19,G53S,-0.325 ± 0.046
20,G53E,-0.111 ± 0.072
21,G53K,-0.145 ± 0.13
22,G53M,-0.772 ± 0.26
23,R51M,-0.682 ± 0.18
24,R51C,-0.744 ± 0.26

row,Variant,abundance fitness
1,R51K,-0.531 ± 0.12
2,R51V,-0.789 ± 0.12
3,R51Q,-0.994 ± 0.21
4,R51H,-0.848 ± 0.25
5,R51I,-0.616 ± 0.35
6,R51W,-0.503 ± 0.31
7,R51P,-0.77 ± 0.11
8,R51G,-0.499 ± 0.082
9,R51T,-1.02 ± 0.29
10,R51D,-0.637 ± 0.46
11,R51A,-0.78 ± 0.12
12,R51Y,-0.773 ± 0.37
13,R51L,-0.829 ± 0.096
14,T50E,-0.008 ± 0.075
15,T50F,-0.247 ± 0.17
16,T50L,0.041 ± 0.044
17,T50N,-0.204 ± 0.23
18,T50A,0.097 ± 0.059
19,T50W,-0.065 ± 0.06
20,T50Q,-0.024 ± 0.08
21,T50R,-0.094 ± 0.058
22,T50I,-0.18 ± 0.1
23,T50H,0.051 ± 0.081
24,T50K,0.098 ± 0.082

row,Variant,abundance fitness
1,T50V,-0.036 ± 0.051
2,T50P,-1.02 ± 0.18
3,T50G,0.026 ± 0.043
4,T50D,0.089 ± 0.045
5,T50M,0.035 ± 0.086
6,T50Y,0 ± 0.1
7,T50S,-0.016 ± 0.054
8,S41A,0.032 ± 0.061
9,S41G,-0.047 ± 0.048
10,S41Y,-0.67 ± 0.45
11,S41T,-0.211 ± 0.097
12,S41M,-0.815 ± 0.32
13,S41I,-0.74 ± 0.28
14,S41E,-0.912 ± 0.2
15,S41F,-0.815 ± 0.36
16,S41C,-0.538 ± 0.12
17,S41V,-0.851 ± 0.17
18,S41P,-0.972 ± 0.17
19,S41R,-0.725 ± 0.074
20,S41N,-0.748 ± 0.37
21,L44M,-0.074 ± 0.071
22,L44G,-0.93 ± 0.11
23,L44D,-0.695 ± 0.32
24,L44P,-0.867 ± 0.15

row,Variant,abundance fitness
1,L44C,-0.116 ± 0.09
2,L44E,-0.902 ± 0.39
3,L44W,-0.806 ± 0.07
4,L44Y,-0.693 ± 0.27
5,L44T,-0.561 ± 0.087
6,L44I,-0.371 ± 0.18
7,L44H,-0.75 ± 0.33
8,L44S,-0.914 ± 0.13
9,L44Q,-0.784 ± 0.16
10,L44V,-0.171 ± 0.047
11,L44A,-0.391 ± 0.064
12,L44R,-0.796 ± 0.1
13,Q40C,-0.127 ± 0.14
14,Q40P,-0.646 ± 0.096
15,Q40W,-0.736 ± 0.13
16,Q40Y,-0.672 ± 0.28
17,Q40T,-0.725 ± 0.13
18,Q40I,-0.663 ± 0.37
19,Q40F,-0.74 ± 0.41
20,Q40L,-0.833 ± 0.13
21,Q40H,-0.622 ± 0.18
22,Q40S,-0.312 ± 0.06
23,Q40R,-0.407 ± 0.055
